Patent US20190241648A1 (STATEN BIOTECHNOLOGY B V, published 2019)
Ends that are not written are not given here.

Experiments:
Assay in all cases: cyclic peptide substitution array
ApoC3 peptide L67D = target: T1, ApoC3 peptide L67D (human, thioether (positions not given here); not fully specified (bridges); also: thioether between a C-terminal Cys side chain and a modified N-terminus, the Cys is not in the chain)
T1 peptide: DKFSEFWDDDPEV
Summary of the method: (§1)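 Peptide microarrays incubated with antibody samples, then stained with goat anti-human IgG (Fc) DyLight680 and anti-HA DyLight800 control antibodies, scanned at intensity 7/7 (red/green). Secondary-only pre-stain checked background binding; framing HA peptides served as quality control; substitution effects read as changes in spot intensity.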

ApoC3 peptide D68G = target: T2, ApoC3 peptide D68G (human, cyclic (thioether))
T2 peptide: DKFSEFWDLGPEV
Summary of the method: as §1

ApoC3 peptide E70K = target: T3, ApoC3 peptide E70K (human, cyclic (thioether))
T3 peptide: DKFSEFWDLDPKV
Summary of the method: as §1

ApoC3 peptide D59L = target: T4, ApoC3 peptide D59L (human, thioether (positions not given here); not fully specified (C-terminus, bridges))
T4 peptide: LKFSEFWDLDPEV
Summary of the method: as §1

ApoC3 peptide W65M = target: T5, ApoC3 peptide W65M (human, cyclic (thioether))
T5 peptide: DKFSEFMDLDPEV
Summary of the method: as §1

ApoC3 peptide L67M = target: T6, ApoC3 peptide L67M (human, thioether (positions not given here); not fully specified (bridges); also: thioether between a C-terminal Cys side chain and a modified N-terminus, the Cys is not in the chain)
T6 peptide: DKFSEFWDMDPEV
Summary of the method: as §1

ApoC3 peptide D59N = target: T7, ApoC3 peptide D59N (human, thioether (positions not given here); not fully specified (C-terminus, bridges); also: cyclised via thioether between a C-terminal Cys and a modified N-terminus, the Cys and the N-terminal …)
T7 peptide: NKFSEFWDLDPEV
Summary of the method: as §1

ApoC3 peptide F61N = target: T8, ApoC3 peptide F61N (human, cyclic (thioether))
T8 peptide: DKNSEFWDLDPEV
Summary of the method: as §1

ApoC3 peptide D68N = target: T9, ApoC3 peptide D68N (human, cyclic (thioether))
T9 peptide: DKFSEFWDLNPEV
Summary of the method: as §1

ApoC3 peptide V71P = target: T10, ApoC3 peptide V71P (human, not fully specified; cyclic (thioether))
T10 peptide: DKFSEFWDLDPEP
Summary of the method: as §1

ApoC3 peptide E63Q = target: T11, ApoC3 peptide E63Q (human, cyclic (thioether))
T11 peptide: DKFSQFWDLDPEV
Summary of the method: as §1

ApoC3 peptide F64Q = target: T12, ApoC3 peptide F64Q (human, thioether (positions not given here); not fully specified (bridges); also: cyclic (thioether), positions not given here)
T12 peptide: DKFSEQWDLDPEV
Summary of the method: as §1

ApoC3 peptide K60R = target: T13, ApoC3 peptide K60R (human, cyclic (thioether))
T13 peptide: DRFSEFWDLDPEV
Summary of the method: as §1

ApoC3 peptide L67R = target: T14, ApoC3 peptide L67R (human, thioether (positions not given here); not fully specified (bridges); also: thioether between a C-terminal Cys side chain and a modified N-terminus, the Cys is not in the chain)
T14 peptide: DKFSEFWDRDPEV
Summary of the method: as §1

ApoC3 peptide F64S = target: T15, ApoC3 peptide F64S (human, thioether (positions not given here); not fully specified (bridges); also: cyclic (thioether), positions not given here)
T15 peptide: DKFSESWDLDPEV
Summary of the method: as §1

ApoC3 peptide P69S = target: T16, ApoC3 peptide P69S (human, not fully specified; cyclic (thioether))
T16 peptide: DKFSEFWDLDSEV
Summary of the method: as §1

ApoC3 peptide F61T = target: T17, ApoC3 peptide F61T (human, cyclic (thioether))
T17 peptide: DKTSEFWDLDPEV
Summary of the method: as §1

ApoC3 peptide P69T = target: T18, ApoC3 peptide P69T (human, not fully specified; cyclic (thioether))
T18 peptide: DKFSEFWDLDTEV
Summary of the method: as §1

ApoC3 peptide F61V = target: T19, ApoC3 peptide F61V (human, cyclic (thioether))
T19 peptide: DKVSEFWDLDPEV
Summary of the method: as §1

ApoC3 peptide W65V = target: T20, ApoC3 peptide W65V (human, cyclic (thioether))
T20 peptide: DKFSEFVDLDPEV
Summary of the method: as §1

ApoC3 peptide E70V = target: T21, ApoC3 peptide E70V (human, cyclic (thioether))
T21 peptide: DKFSEFWDLDPVV
Summary of the method: as §1

ApoC3 peptide D59W = target: T22, ApoC3 peptide D59W (human, thioether (positions not given here); not fully specified (C-terminus, bridges); also: cyclised via thioether between a C-terminal Cys and a modified N-terminus, the Cys and the N-terminal …)
T22 peptide: WKFSEFWDLDPEV
Summary of the method: as §1

ApoC3 peptide S62W = target: T23, ApoC3 peptide S62W (human, thioether (positions not given here); also: cyclic (thioether), ring places not given here)
T23 peptide: DKFWEFWDLDPEV
Summary of the method: as §1

ApoC3 peptide D66Y = target: T24, ApoC3 peptide D66Y (human, cyclic (thioether))
T24 peptide: DKFSEFWYLDPEV
Summary of the method: as §1

ApoC3 peptide P69Y = target: T25, ApoC3 peptide P69Y (human, not fully specified; cyclic (thioether))
T25 peptide: DKFSEFWDLDYEV
Summary of the method: as §1

ApoC3 peptide E70Y = target: T26, ApoC3 peptide E70Y (human, cyclic (thioether))
T26 peptide: DKFSEFWDLDPYV
Summary of the method: as §1

ApoC3 peptide S62A = target: T27, ApoC3 peptide S62A (human, not fully specified; cyclic (thioether))
T27 peptide: DKFAEFWDLDPEV
Summary of the method: as §1

ApoC3 peptide F64A = target: T28, ApoC3 peptide F64A (human, cyclic (thioether))
T28 peptide: DKFSEAWDLDPEV
Summary of the method: as §1

ApoC3 peptide V71A = target: T29, ApoC3 peptide V71A (human, thioether (positions not given here); also: cyclic (thioether), ring places not given here)
T29 peptide: DKFSEFWDLDPEA
Summary of the method: as §1

ApoC3 peptide D59C = target: T30, ApoC3 peptide D59C (human, thioether (positions not given here); not fully specified (C-terminus, bridges))
T30 peptide: CKFSEFWDLDPEV
Summary of the method: as §1

B1: Llama antibody 5E5 (antibody, V domains shown)
VH: QLQLVESGGGLVQPGGSLRLSCAASGFTFGTYSMRWVRQVPRKALEWVSSISTDGGGTAYRDSVKGRFTISRDNAKNTLYLQMNNLKPEDTAIYYCVIAGYSDWGQGTQVTVSS
VL: ATMLTQSPGSLSVVPGESASISCKTSQGLVHSDGKTYFYWFLQKPGQSPQQLIYQVSNRASGVPDRFTGSGSGTDFTLKISGVKAEDAGVYYCAQGTYYPHTFGSGTRLEIK
notes: detected with goat anti-human IgG (Fc); also called mAb 5E5
In the case of B1, the “% of binding to wild-type peptide” value (ApoC3 peptide L67D) is reported as 0.99%, the “% of binding to wild-type peptide” value (ApoC3 peptide D68G) is reported as 3.59% and the “% of binding to wild-type peptide” value (ApoC3 peptide E70K) is reported as 60.1%. The “% of binding to wild-type peptide” value (ApoC3 peptide D59L) was 33.6%, the “% of binding to wild-type peptide” value (ApoC3 peptide W65M) was 0% and the “% of binding to wild-type peptide” value (ApoC3 peptide L67M) was 12.5%. The “% of binding to wild-type peptide” value (ApoC3 peptide D59N) was 52.5%, the “% of binding to wild-type peptide” value (ApoC3 peptide F61N) was 25.9% and the “% of binding to wild-type peptide” value (ApoC3 peptide D68N) was 0%. The “% of binding to wild-type peptide” value (ApoC3 peptide V71P) was 173%, the “% of binding to wild-type peptide” value (ApoC3 peptide E63Q) was 32.4% and the “% of binding to wild-type peptide” value (ApoC3 peptide F64Q) was 130%. For the same binder, the “% of binding to wild-type peptide” value (ApoC3 peptide K60R) was 112%, the “% of binding to wild-type peptide” value (ApoC3 peptide L67R) was 15.4% and the “% of binding to wild-type peptide” value (ApoC3 peptide F64S) was 367%. For the same binder, the “% of binding to wild-type peptide” value (ApoC3 peptide P69S) was 86.9%, the “% of binding to wild-type peptide” value (ApoC3 peptide F61T) was 40.3% and the “% of binding to wild-type peptide” value (ApoC3 peptide P69T) was 113%. For the same binder, the “% of binding to wild-type peptide” value (ApoC3 peptide F61V) was 20.2%, the “% of binding to wild-type peptide” value (ApoC3 peptide W65V) was 17.9% and the “% of binding to wild-type peptide” value (ApoC3 peptide E70V) was 57%. For the same binder, the “% of binding to wild-type peptide” value (ApoC3 peptide D59W) was 56.8%, the “% of binding to wild-type peptide” value (ApoC3 peptide S62W) was 0% and the “% of binding to wild-type peptide” value (ApoC3 peptide D66Y) was 0%. For the same binder, the “% of binding to wild-type peptide” value (ApoC3 peptide P69Y) was 15.4%, the “% of binding to wild-type peptide” value (ApoC3 peptide E70Y) was 50.7% and the “% of binding to wild-type peptide” value (ApoC3 peptide S62A) was 29.6%. For the same binder, the “% of binding to wild-type peptide” value (ApoC3 peptide F64A) was 220%, the “% of binding to wild-type peptide” value (ApoC3 peptide V71A) was 66.3% and the “% of binding to wild-type peptide” value (ApoC3 peptide D59C) was 66.2%.
